Biological target: AHb1 (Arabidopsis thaliana, UniProt O24520)
Experiment: size exclusion chromatography

| Kd | Binder |
| --- | --- |
| 1.2 µM | AHb1 (protein, ferrous-oxy heme (O2-bound)) MESEGKIVFTEEQEALVVKSWSVMKKNSAELGLKLFIKIFEIAPTTKKMFSFLRDSPIPAEQNPKLKPHAMSVFVMCCESAVQLRKTGKVTVRETTLKRLGASHSKYGVVDEHFEVAKYALLETIKEAVPEMWSPEMKVAWGQAYDHLVAAIKAEMNLSN |
| 11 µM | AHb1 (protein, ferric heme) MESEGKIVFTEEQEALVVKSWSVMKKNSAELGLKLFIKIFEIAPTTKKMFSFLRDSPIPAEQNPKLKPHAMSVFVMCCESAVQLRKTGKVTVRETTLKRLGASHSKYGVVDEHFEVAKYALLETIKEAVPEMWSPEMKVAWGQAYDHLVAAIKAEMNLSN |

Source: article PMC7761212 (2020)
